Data as given in the supplement of paper PMC10065799, “High-throughput profiling of sequence recognition by tyrosine kinases and SH2 domains using bacterial peptide display” (eLife, 2023).

Experiments:
AncSZ = experiment: phosphorylation enrichment, bacterial display (enrichment ratio); higher = better substrate or ligand; peptides without Tyr show the background
FGFR1 = FGFR1 (UniProt P11362); experiment: as above
Jak2 = Jak2 (UniProt O60674); experiment: as above
c-Abl (mouse) = experiment: as above
MERTK = MERTK (UniProt Q12866); experiment: as above
EPHB1 = EPHB1 (UniProt P54762); experiment: as above
c-Src = experiment: as above
EPHB2 = EPHB2 (UniProt P29323); experiment: as above
Hck = Hck (UniProt P08631); experiment: as above
Fyn = Fyn (UniProt P06241); experiment: as above
Fer (mouse) = experiment: as above
FGFR3 = FGFR3 (UniProt P22607); experiment: as above
Fes = Fes (UniProt P07332); experiment: as above
c-Src SH2 = experiment: SH2 binding enrichment of the phosphorylated peptide, bacterial display (enrichment ratio); higher = better substrate or ligand; peptides without Tyr show the background
SHP2-C SH2 = experiment: as above
Grb2 SH2 = Grb2 SH2 (UniProt P62993); experiment: as above
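Throughout, for SH2 binding enrichment of the phosphorylated peptide, bacterial display: peptide library displayed on the E. coli surface as eCPX fusions, selected cells deep-sequenced, score is each peptide's frequency after selection divided by its frequency in the input.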
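Throughout, for phosphorylation enrichment, bacterial display: 11-residue human phosphosite peptides and single-mutation variants displayed on the E. coli surface, counted by deep sequencing, each peptide's frequency after selection divided by its frequency in the unselected input library; frequency after pTyr selection over input frequency; kinase dosed for 20-30% of maximal phosphorylation in three min.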

Jak2, sequence (O60674 whole entry, looked up): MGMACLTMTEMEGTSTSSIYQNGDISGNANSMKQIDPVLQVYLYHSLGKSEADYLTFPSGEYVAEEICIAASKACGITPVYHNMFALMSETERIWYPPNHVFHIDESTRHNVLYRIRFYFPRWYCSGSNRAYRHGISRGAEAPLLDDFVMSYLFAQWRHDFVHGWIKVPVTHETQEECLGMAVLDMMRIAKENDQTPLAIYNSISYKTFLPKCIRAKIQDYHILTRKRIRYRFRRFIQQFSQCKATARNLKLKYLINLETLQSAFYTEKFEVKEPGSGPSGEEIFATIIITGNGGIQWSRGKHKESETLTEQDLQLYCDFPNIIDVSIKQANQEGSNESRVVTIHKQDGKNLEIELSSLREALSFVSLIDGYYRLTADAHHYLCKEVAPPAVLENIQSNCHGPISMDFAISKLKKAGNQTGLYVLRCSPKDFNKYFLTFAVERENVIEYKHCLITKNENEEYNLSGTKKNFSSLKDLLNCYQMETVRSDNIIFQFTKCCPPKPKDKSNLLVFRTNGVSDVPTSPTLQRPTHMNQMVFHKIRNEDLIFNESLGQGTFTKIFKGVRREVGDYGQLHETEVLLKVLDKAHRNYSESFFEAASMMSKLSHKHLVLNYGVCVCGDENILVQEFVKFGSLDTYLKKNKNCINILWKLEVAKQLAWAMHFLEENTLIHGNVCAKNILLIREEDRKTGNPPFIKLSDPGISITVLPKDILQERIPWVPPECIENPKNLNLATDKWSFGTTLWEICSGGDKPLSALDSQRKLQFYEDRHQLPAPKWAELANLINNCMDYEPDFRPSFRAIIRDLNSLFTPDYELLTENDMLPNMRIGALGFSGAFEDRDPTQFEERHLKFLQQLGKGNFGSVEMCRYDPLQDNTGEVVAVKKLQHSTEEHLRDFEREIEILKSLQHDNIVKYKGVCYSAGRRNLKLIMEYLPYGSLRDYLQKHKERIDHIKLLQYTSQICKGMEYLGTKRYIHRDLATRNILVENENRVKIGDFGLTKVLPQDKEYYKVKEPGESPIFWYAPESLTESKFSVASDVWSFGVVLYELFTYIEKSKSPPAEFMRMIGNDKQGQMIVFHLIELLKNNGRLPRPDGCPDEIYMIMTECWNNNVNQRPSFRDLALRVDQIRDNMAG
MERTK, sequence (Q12866 whole entry, looked up): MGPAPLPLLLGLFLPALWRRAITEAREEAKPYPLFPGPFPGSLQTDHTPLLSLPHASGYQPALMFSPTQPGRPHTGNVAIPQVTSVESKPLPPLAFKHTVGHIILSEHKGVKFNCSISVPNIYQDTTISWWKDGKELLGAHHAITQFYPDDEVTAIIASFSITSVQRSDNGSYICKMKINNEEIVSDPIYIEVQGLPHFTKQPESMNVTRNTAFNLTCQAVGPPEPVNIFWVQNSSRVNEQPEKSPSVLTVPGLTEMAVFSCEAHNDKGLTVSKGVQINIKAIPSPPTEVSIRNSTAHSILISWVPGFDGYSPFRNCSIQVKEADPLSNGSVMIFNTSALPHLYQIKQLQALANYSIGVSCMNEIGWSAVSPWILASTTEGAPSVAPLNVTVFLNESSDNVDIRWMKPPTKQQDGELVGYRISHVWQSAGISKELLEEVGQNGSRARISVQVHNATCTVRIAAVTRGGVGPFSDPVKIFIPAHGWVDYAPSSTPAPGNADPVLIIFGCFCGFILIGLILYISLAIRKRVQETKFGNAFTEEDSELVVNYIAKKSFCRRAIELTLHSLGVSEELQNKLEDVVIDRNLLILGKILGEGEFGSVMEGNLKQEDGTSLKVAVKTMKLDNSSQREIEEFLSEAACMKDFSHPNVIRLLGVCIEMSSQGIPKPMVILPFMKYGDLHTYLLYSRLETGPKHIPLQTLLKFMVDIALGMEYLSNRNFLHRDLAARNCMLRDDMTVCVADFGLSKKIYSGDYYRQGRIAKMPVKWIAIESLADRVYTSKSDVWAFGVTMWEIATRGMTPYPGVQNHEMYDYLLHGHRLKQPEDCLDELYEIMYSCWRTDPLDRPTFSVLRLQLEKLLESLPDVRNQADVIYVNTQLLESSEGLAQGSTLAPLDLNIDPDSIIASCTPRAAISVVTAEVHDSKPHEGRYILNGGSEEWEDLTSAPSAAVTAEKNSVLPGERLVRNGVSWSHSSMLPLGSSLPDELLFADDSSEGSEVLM
EPHB1, sequence (P54762 whole entry, looked up): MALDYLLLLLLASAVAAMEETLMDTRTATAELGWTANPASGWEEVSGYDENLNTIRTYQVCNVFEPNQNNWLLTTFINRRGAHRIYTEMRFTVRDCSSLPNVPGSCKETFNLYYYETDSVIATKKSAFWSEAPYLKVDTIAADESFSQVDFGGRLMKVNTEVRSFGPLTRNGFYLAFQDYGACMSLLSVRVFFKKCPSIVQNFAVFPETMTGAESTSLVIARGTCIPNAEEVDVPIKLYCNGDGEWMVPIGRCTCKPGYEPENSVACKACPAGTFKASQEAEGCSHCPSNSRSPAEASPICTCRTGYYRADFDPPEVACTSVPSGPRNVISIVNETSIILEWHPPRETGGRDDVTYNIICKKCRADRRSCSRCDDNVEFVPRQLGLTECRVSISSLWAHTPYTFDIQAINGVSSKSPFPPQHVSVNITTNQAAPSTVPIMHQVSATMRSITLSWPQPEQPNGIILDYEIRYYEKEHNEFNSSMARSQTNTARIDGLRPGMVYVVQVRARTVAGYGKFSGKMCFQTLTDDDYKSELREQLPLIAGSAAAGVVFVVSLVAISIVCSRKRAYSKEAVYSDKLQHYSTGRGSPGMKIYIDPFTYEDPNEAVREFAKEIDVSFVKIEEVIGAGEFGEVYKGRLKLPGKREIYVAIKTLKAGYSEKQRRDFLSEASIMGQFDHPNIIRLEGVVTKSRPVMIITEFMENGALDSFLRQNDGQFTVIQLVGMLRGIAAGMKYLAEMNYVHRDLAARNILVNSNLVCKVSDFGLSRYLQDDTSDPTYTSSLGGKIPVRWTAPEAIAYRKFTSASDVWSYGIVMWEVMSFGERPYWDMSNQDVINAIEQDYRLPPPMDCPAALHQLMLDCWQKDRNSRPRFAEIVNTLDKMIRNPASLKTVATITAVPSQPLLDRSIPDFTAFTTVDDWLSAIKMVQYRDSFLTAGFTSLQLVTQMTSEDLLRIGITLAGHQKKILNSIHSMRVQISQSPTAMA
FGFR3, sequence (P22607 whole entry, looked up): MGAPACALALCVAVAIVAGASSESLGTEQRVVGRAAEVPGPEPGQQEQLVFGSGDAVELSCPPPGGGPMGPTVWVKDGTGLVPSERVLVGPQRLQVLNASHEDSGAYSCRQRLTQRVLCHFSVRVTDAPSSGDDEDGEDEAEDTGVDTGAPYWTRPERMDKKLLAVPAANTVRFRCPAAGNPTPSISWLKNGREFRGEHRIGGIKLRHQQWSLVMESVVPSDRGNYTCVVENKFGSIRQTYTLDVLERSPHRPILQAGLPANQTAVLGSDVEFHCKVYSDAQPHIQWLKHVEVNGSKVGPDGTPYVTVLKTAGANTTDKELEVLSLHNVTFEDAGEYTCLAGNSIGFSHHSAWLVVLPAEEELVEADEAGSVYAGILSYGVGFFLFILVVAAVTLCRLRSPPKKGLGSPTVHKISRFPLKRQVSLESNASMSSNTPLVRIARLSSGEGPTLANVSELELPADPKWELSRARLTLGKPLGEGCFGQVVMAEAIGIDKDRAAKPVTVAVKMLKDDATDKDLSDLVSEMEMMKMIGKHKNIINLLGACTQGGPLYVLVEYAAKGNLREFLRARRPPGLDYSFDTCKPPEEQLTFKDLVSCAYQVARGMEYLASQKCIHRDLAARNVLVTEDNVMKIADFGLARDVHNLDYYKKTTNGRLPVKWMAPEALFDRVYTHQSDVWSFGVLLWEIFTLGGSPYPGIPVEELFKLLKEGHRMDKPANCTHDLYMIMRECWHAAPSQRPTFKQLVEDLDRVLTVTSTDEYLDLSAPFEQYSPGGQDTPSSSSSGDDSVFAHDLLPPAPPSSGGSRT
EPHB2, sequence (P29323 whole entry, looked up): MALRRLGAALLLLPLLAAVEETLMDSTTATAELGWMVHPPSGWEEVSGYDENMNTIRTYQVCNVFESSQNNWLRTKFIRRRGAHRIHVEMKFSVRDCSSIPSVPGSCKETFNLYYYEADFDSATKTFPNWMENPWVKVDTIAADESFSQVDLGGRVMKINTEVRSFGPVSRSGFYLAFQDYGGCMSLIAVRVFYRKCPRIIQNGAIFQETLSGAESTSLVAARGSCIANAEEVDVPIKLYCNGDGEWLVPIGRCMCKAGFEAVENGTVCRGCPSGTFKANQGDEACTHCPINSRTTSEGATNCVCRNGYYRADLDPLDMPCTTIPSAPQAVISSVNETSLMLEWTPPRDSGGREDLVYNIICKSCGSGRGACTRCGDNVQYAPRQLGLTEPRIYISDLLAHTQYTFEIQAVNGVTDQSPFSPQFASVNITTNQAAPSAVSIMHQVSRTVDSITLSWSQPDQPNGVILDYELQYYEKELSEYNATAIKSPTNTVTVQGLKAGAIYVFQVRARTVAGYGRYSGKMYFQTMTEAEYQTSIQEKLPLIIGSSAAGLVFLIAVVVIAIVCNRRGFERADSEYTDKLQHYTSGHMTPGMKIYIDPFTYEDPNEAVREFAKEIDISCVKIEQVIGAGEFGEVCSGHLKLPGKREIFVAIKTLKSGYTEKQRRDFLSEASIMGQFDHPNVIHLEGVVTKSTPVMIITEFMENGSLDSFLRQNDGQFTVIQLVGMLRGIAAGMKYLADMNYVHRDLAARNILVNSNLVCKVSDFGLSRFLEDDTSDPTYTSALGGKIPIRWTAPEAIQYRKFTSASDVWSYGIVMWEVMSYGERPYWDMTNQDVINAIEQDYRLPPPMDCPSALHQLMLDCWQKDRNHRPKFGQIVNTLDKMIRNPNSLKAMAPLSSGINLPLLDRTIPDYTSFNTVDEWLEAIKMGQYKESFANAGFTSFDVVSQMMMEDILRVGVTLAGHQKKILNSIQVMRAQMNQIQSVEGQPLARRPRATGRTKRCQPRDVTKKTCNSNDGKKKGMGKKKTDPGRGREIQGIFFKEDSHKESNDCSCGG

Sequence	SH2 binding enrichment (c-Src SH2)	SH2 binding enrichment (SHP2-C SH2)	SH2 binding enrichment (Grb2 SH2)	phosphorylation enrichment (AncSZ)	phosphorylation enrichment (FGFR1)	phosphorylation enrichment (Jak2)	phosphorylation enrichment (c-Abl (mouse))	phosphorylation enrichment (MERTK)	phosphorylation enrichment (EPHB1)	phosphorylation enrichment (c-Src)	phosphorylation enrichment (EPHB2)	phosphorylation enrichment (Hck)	phosphorylation enrichment (Fyn)	phosphorylation enrichment (Fer (mouse))	phosphorylation enrichment (FGFR3)	phosphorylation enrichment (Fes)
VGTKRYVAPEV [ACVRL1_Y375_M376V]	0.354	0.403	0.724	0.61	0.332	0.477	0.544	0.422	0.309	0.458	0.444	0.351	0.451	0.474	0.464	0.658
VIDGKYAFKPK [GTF2E2_Y137]	0.451	0.602	0.873	0.413	0.348	0.421	0.585	0.323	0.264	0.328	0.304	0.412	0.348	0.276	0.329	0.457
VIGRMYDYHVL [RPF2_Y109]	1.93	1.71	0.927	0.966	6.62	0.976	0.65	5.17	1.33	0.643	1.7	0.538	0.504	9.05	3.7	0.859
VIKSSYQVAKA [CPT1B_Y534_E531K]	0.41	0.503	0.783	0.588	0.391	0.406	0.489	0.371	0.364	0.458	0.414	0.391	0.34	0.326	0.428	0.749
VKPENYRRLDI [VHL_Y175]	0.459	0.769	0.879	0.473	0.615	0.298	0.345	0.337	0.58	0.324	0.324	0.331	0.351	0.305	0.463	0.48
VLTSKHRGGGG [HBA1_Y141_Y141H]	0.823	0.751	1.02	0.486	0.464	0.332	0.418	0.677	0.318	0.344	0.225	0.322	0.527	0.222	0.419	0.396
VMAALYGRLFE [BTD_Y536_T532M_YF]	1.18	1.44	1.59	0.981	0.457	1.03	0.967	1.34	0.597	6.1	0.743	5.53	6.68	0.612	0.752	1.18
VTRKEYFIFLE [CAMKV_Y95]	1.03	1.43	1.55	1.11	0.786	1.01	0.792	0.401	0.696	0.695	0.554	0.43	0.481	0.528	0.838	1.06

More lines, main results first:

SH2 binding enrichment (c-Src SH2)	SH2 binding enrichment (SHP2-C SH2)	SH2 binding enrichment (Grb2 SH2)	Sequence	phosphorylation enrichment (AncSZ)	phosphorylation enrichment (FGFR1)	phosphorylation enrichment (Jak2)	phosphorylation enrichment (c-Abl (mouse))	phosphorylation enrichment (MERTK)	phosphorylation enrichment (EPHB1)	phosphorylation enrichment (c-Src)	phosphorylation enrichment (EPHB2)	phosphorylation enrichment (Hck)	phosphorylation enrichment (Fyn)	phosphorylation enrichment (Fer (mouse))	phosphorylation enrichment (FGFR3)	phosphorylation enrichment (Fes)
0.517	0.599	0.694	VHSGTYQVTVC [MYBPC3_Y1043_R1048C]	1.03	0.51	1.01	0.883	0.575	0.749	0.684	0.655	0.588	0.555	0.516	0.93	1.23
0.576	0.514	0.835	VKPRRYRPGTV [H3-5_Y41_H39R]	0.622	0.53	0.588	0.512	0.577	0.56	0.608	0.51	0.5	0.58	0.463	0.466	0.542
0.495	1.84	0.896	VKYLGYPPPEI [KDR_Y357_A352V]	0.7	0.666	0.489	0.796	0.427	0.468	0.403	0.491	0.451	0.486	0.37	0.626	0.719
1.09	1.31	1.11	VLICAYLLHRG [PTEN_Y138_M134L]	1.06	0.44	0.929	0.833	0.412	0.62	0.516	0.661	0.608	0.515	0.856	0.809	1.33
1.34	1.55	1.47	VLSIDYYFPPQ [AR_Y552_P549S]	6.35	13.3	6.81	1.24	3.5	3.13	2.17	3.2	0.881	1.03	0.605	10.8	1.09
1.52	1.53	1.3	VMAALYGRLYE [BTD_Y536_T532M]	0.795	0.468	0.864	0.8	3	0.961	5.01	1.42	5.58	5.87	1.38	0.617	0.963
1.23	1.12	3.13	VNYGAYINYFK [GLB1_Y488_D491Y]	0.894	0.905	1.7	0.941	0.629	1.9	1.08	2.03	1.1	1.22	0.488	0.986	1.06
0.495	0.822	0.824	VQEDIYDEFVV [ALDH2_Y332_E337V]	1.55	0.599	1.37	1.75	3.17	0.676	3.57	0.827	2.81	3.96	5.77	0.886	1.25
0.521	0.825	0.763	VTPSEYLEIVR [TMEM130_Y412_E407V]	0.969	0.557	0.762	0.681	0.387	1.21	0.44	0.618	0.751	0.51	0.45	0.736	0.859
